Each block holds one substance with its values, some of them ahead of it.
What was measured:
[1] = biological target: human Fn14 on cells (MEF Fn14-V5, U87-Luc/GFP, 231-Luc) (human); test: human U87 glioma cells treated with fluorescent particles (FIG. 3C; legend says flow cytometry)
[2] = biological target: human Fn14 on cells (MEF Fn14-V5, U87-Luc/GFP, 231-Luc) (human); test: flow cytometry, human U87-Luc/GFP GBM cells
[3] = biological target: Fn14 extracellular domain (recombinant, Cell Sciences); test: SPR (Biacore), ratio of KD against free ITEM4
[4] = biological target: human Fn14 on cells (MEF Fn14-V5, U87-Luc/GFP, 231-Luc) (human); test: flow cytometry, MEF Fn14-V5 cells expressing human Fn14
[5] = biological target: Fn14 extracellular domain (recombinant, Cell Sciences); test: SPR (Biacore 3000), Fn14 extracellular domain on CM5 chip, equilibrium fit, per nanoparticle
[6] = biological target: Fn14 extracellular domain (recombinant, Cell Sciences); test: SPR (Biacore 3000), Fn14 extracellular domain on CM5 chip, equilibrium fit
[7] = biological target: Fn14 extracellular domain (recombinant, Cell Sciences); test: SPR (Biacore), Fn14 extracellular domain on chip, binding isotherm of RUeq, per nanoparticle
[8] = biological target: human Fn14 on cells (MEF Fn14-V5, U87-Luc/GFP, 231-Luc) (human); test: cell-based or functional assay
[9] = biological target: human Fn14 on cells (MEF Fn14-V5, U87-Luc/GFP, 231-Luc) (human); test: flow cytometry, 231-Luc cells
[10] = biological target: Fn14 extracellular domain (recombinant, Cell Sciences); test: SPR (Biacore), Fn14 chip, nanoparticles first incubated with mouse blood serum

fold increase in binding to glioma cells against non-targeted BPN [1]: 4.5 fold
Substance: BPN conjugated with ITEM4 at high density

fold cellular uptake efficiency against CNP alone [2]: 3.5 fold | fold higher binding affinity than ITEM4 alone [3]: 65 fold | fold cellular uptake against CNP [4]: 2.5 fold | Kd [5]: 0.024 nM
Substance: CNP-ITEM4 (high): 100 nm PEG-coated polystyrene nanoparticles decorated with a high density of ITEM4

Kd [7]: 3.2 nM
Substance: PLGA-PEG1%-ITEM41% nanoparticles

Kd [7]: 26.5 nM
Substance: PLGA-PEG10%-ITEM40.1% nanoparticles

Continued, substance first:

Substance: CNP-ITEM4 (low): 100 nm PEG-coated polystyrene nanoparticles decorated with a low density of ITEM4
fold cellular uptake efficiency against CNP alone [2]: 1.25 fold | fold higher binding affinity than ITEM4 alone [3]: 15 fold | Kd [5]: 0.106 nM

Substance: ITEM4 monoclonal antibody (Fn14-specific monoclonal antibody)
Kd [6]: 1.62 nM

Substance: PLGA-PEG5%-ITEM41% nanoparticles
Kd [7]: 2.4 nM

Substance: PLGA-PEG10%-ITEM41% nanoparticles (optimized DART nanoparticles)
IC50 (as paclitaxel), viability of 231-Luc cells by MTS assay, 2 h exposure then 24 h in fresh medium (in vitro clearance study), paclitaxel-loaded particles [8]: 130 nM | fold cellular association efficiency against PLGA-PEG [9]: 2.5 fold | Kd [10]: 6.1 nM | Kd [7]: 1.9 nM

Substance: PLGA-PEG10%-ITEM410% nanoparticles
Kd [7]: 2.6 nM

Substance: thiol-modified ITEM4 (ITEM4-SH) (antibody)
Kd [6]: 1.57 nM

— patent US20190328677A1
